From publication PMC8266642

Target: T1, StrepHP1021 (HP1021) (Helicobacter pylori 26695) (UniProt O25665)
T1 sequence: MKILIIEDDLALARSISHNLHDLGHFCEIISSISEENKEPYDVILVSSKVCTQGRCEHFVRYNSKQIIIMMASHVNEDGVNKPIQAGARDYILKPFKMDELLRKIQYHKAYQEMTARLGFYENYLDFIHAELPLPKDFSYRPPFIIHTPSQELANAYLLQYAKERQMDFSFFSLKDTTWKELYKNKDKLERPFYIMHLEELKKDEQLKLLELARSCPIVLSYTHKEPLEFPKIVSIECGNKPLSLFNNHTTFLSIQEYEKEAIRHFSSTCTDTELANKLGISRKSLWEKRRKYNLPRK
Experiment: EMSA
Details: EMSA: 50 mM Tris-HCl pH 8.0, 100 mM NaCl, 0.2% Triton X-100, 5 nM DNA, 37 C 20 min; 4% PAGE in 0.5x TBE or TB at 20-25 C. SPR: 50 mM Tris-HCl pH 8.0, 100 mM …

Sequence	binding
ATGATATTTATATGATATTTTTGGGTAATTTAAGATGAATATCGGTAGCGTTTTGAATAAATTTGTTACTACTTTTCACTTTATTACGCCAAATTTTCCCTTATTACAAACAACTTTGAAATAAATGATTTCCATTTAAAAATCAGCCTTATACTTCTAATAGGTTGCCTTGAGCAACACTTTAATACAAGGAGTCTAAATGAAAGACGCAAATTCGAAGCTATTCTTACTCC (double strand) [phyuA]	binds
GGAGTAAGAATAGCTTCGAATCTCTATTTTGAAAACCCCTATTTCAGGCTTTTGAGTTTTTTAGGCTCTAGTTTTATCCACCCCTTTGGATTTGATTGGTTAGTCCCAGATAGCTTTTTTTCTTATAGCGTGTTTAGAGTGGATAAATTATCGCTAGGGCTTGTTTTTTTGGCTTGCATTTTTTTGAGCACTAAACCATTGAAAAAATATAG (double strand) [FAM-HP0180 fragment]	binds more weakly
